# Results taken from IntAct's records for PubMed 22430200.
# B1: E3 ubiquitin-protein ligase RNF31 (Homo sapiens), Q96EP0 (parent)
# chain: MPGEEEERAFLVAREELASALRRDSGQAFSLEQLRPLLASSLPLAARYLQLDAARLVRCNAHGEPRNYLNTLSTALNILEKYGRNLLSPQRPRYWRGVKFNNPVFRSTVDAVQGGRDVLRLYGYTEEQPDGLSFPEGQEEPDEHQVATVTLEVLLLRTELSLLLQNTHPRQQALEQLLEDKVEDDMLQLSEFDPLLREIAPGPLTTPSVPGSTPGPCFLCGSAPGTLHCPSCKQALCPACDHLFHGHPSRAHHLRQTLPGVLQGTHLSPSLPASAQPRPQSTSLLALGDSSLSSPNPASAHLPWHCAACAMLNEPWAVLCVACDRPRGCKGLGLGTEGPQGTGGLEPDLARGRWACQSCTFENEAAAVLCSICERPRLAQPPSLVVDSRDAGICLQPLQQGDALLASAQSQVWYCIHCTFCNSSPGWVCVMCNRTSSPIPAQHAPRPYASSLEKGPPKPGPPRRLSAPLPSSCGDPEKQRQDKMREEGLQLVSMIREGEAAGACPEEIFSALQYSGTEVPLQWLRSELPYVLEMVAELAGQQDPGLGAFSCQEARRAWLDRHGNLDEAVEECVRTRRRKVQELQSLGFGPEEGSLQALFQHGGDVSRALTELQRQRLEPFRQRLWDSGPEPTPSWDGPDKQSLVRRLLAVYALPSWGRAELALSLLQETPRNYELGDVVEAVRHSQDRAFLRRLLAQECAVCGWALPHNRMQALTSCECTICPDCFRQHFTIALKEKHITDMVCPACGRPDLTDDTQLLSYFSTLDIQLRESLEPDAYALFHKKLTEGVLMRDPKFLWCAQCSFGFIYEREQLEATCPQCHQTFCVRCKRQWEEQHRGRSCEDFQNWKRMNDPEYQAQGLAMYLQENGIDCPKCKFSYALARGGCMHFHCTQCRHQFCSGCYNAFYAKNKCPEPNCRVKKSLHGHHPRDCLFYLRDWTALRLQKLLQDNNVMFNTEPPAGARAVPGGGCRVIEQKEVPNGLRDEACGKETPAGYAGLCQAHYKEYLVSLINAHSLDPATLYEVEELETATERYLHVRPQPLAGEDPPAYQARLLQKLTEEVPLGQSIPRRRK
# Variants of: B1
# Details: with hoil1_human RBCK1, Q9BYM8
# hoil1_human RBCK1, Q9BYM8, sequence (Q9BYM8 whole entry): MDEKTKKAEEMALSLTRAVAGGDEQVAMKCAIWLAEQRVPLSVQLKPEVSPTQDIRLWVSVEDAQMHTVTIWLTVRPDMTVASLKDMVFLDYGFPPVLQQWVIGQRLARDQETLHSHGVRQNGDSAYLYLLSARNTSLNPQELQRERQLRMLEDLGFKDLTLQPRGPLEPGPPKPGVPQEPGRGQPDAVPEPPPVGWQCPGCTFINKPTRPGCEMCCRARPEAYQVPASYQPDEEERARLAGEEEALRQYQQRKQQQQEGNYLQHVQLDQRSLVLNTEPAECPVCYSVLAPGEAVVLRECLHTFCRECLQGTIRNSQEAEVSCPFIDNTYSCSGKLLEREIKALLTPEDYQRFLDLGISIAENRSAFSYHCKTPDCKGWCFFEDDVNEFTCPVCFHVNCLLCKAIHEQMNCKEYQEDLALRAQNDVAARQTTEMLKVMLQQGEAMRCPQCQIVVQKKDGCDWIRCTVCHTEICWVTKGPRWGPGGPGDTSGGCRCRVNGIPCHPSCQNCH
row,Variant,effect of a mutation on the interaction
1,F620A,disrupting interaction

# Variants of: B1
# Details: with hoil1_human RBCK1, Q9BYM8
# Remark: another data set of the same source
row,Variant,effect of a mutation on the interaction
1,F620A,decreasing interaction

# Variants of: B1
# Details: with hoil1_human RBCK1, Q9BYM8
# Remark: another data set of the same source
row,Variant,effect of a mutation on the interaction
1,R623A,disrupting interaction

# Variants of: B1
# Details: with hoil1_human RBCK1, Q9BYM8
# Remark: another data set of the same source
row,Variant,effect of a mutation on the interaction
1,Q613A,disrupting interaction

# Variants of: B1
# Details: with hoil1_human RBCK1, Q9BYM8
# Remark: another data set of the same source
row,Variant,effect of a mutation on the interaction
1,Q613A,decreasing interaction
2,L617A,decreasing interaction

# Variants of: B1
# Details: with hoil1_human RBCK1, Q9BYM8
# Remark: another data set of the same source
row,Variant,effect of a mutation on the interaction
1,L617A,disrupting interaction
